Source: publication PMC3162612, “RssAB Signaling Coordinates Early Development of Surface Multicellularity in Serratia marcescens” (PLoS ONE, 2011)

Target: T1, GST-tagged non-phosphorylatable variant RssB D51E (Serratia marcescens, UniProt Q8GP20 1-219, D51E)
T1 construct: RssB, response regulator of the RssAB two-component system, Serratia marcescens CH-1, with D51E; plasmid pGST-RssB^D51E (pGEX-2T-rssB D51E); used to mimic unphosphorylated RssB; also called GST-RssB^D51E; source: E. coli BL21(DE3)pLysS, purified
T1 sequence: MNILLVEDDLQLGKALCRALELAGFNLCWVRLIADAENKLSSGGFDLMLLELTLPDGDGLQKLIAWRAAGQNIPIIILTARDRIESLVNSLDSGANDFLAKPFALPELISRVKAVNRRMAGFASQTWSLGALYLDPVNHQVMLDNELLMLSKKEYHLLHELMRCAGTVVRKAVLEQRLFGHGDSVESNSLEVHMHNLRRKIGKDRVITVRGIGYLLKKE
Experiment: pull-down; GST, GST-RssB or GST-RssB D51E pretreated with acetyl-phosphate, incubated with His-cRssA and glutathione sepharose-4B in interaction buffer (20 mM Tris-HCl pH 7.5, 10 mM MgCl2, 100 mM KCl), 4°C 1 hr; washed; SDS-PAGE, Coomassie stain and anti-hexa-histidine blot
Settings: both partners purified

B1: poly histidine-tagged cytoplasmic region of RssA (domain or fragment)
chain: LRPLRQIARTISDRQPGNLSPINVSEQYQEIRPVVMEVNKLMARIDAANQREKRFMADAAHELRTPIAAVLAQLHLLTQVTEQQERREIIGDMQQGLDRAASLSRQLINLAKLEAEDFPLKIEAVDIYAEIGKCIAQHVPYALEKDVELSLDGSEDVVVSTDRRALIAIFTNLLDNALKYAPPGSRIEANIRSLAPLGCYITLRDNGPGVSEEHRSRLFERFYRVPGTQQTGSGLGLAIARNLADKIGAQLRVTEGLDDRGIGFIIDLPESYRPQTESEPRP
notes: RssA, inner membrane sensor kinase of the RssAB two-component system, Serratia marcescens CH-1; also called His-cRssA; cRssA; source: E. coli BL21(DE3)pLysS, recombinant protein for purification
- fold His-cRssA pulled down relative to GST-RssB: ~2 fold
